T1: cFΦR4-PCP (not fully specified)
T1 chain: FXRRRRQXDEXLI

T2: Antp-PCP
T2 chain: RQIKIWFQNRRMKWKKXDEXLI

T3: peptide 7 (Table 10)
T3 chain: RRRRRRRRRDXXDX

T4: R9-PCP
T4 chain: RRRRRRRRRXDEXLI

T5: peptide 6 (Table 10)
T5 chain: RRRRXFDXXD

B1: SHP2 (protein)
chain: AETTDKVKQGFWEEFETLQQQECKLLYSRKEGQRQENKNKNRYKNILPFDHTRVVLHDGDPNEPVSDYINANIIMPEFETKCNNSKPKKSYIATQGCLQNTVNDFWRMVFQENSRVIVMTTKEVERGKSKCVKYWPDEYALKEYGVMRVRNVKESAAHDYTLRELKLSKVGQGNTERTVWQYHFRTWPDHGVPSDPGGVLDFLEEVHHKQESIMDAGPVVVHCSAGIGRTGTFIVIDILIDIIREKGVDCDIDVPKTIQMVRSQRSGMVQTEAQYRFIYMAVQHYIETLQRRI
B2: PTPRC (protein)
chain: YKIYDLHKKRSCNLDEQQELVERDDEKQLMNVEPIHADILLETYKRKIADEGRLFLAEFQSIPRVFSKFPIKEARKPFNQNKNRYVDILPYDYNRVELSEINGDAGSNYINASYIDGFKEPRKYIAAQGPRDETVDDFWRMIWEQKATVIVMVTRCEEGNRNKCAEYWPSMEEGTRAFGDVVVKINQHKRCPDYIIQKLNIVNKKEKATGREVTHIQFTSWPDHGVPEDPHLLLKLRRRVNAFSNFFSGPIVVHCSAGVGRTGTYIGIDAMLEGLEAENKVDVYGYVVKLRRQRCLMVQVEAQYILIHQALVEYNQFGETEVNLSELHPYLHNMKKRDPPSEPSPLEAEFQRLPSYRSWRTQHIGNQEENKSKNRNSNVIPYDYNRVPLKHELEMSKESEHDSDESSDDDSDSEEPSKYINASFIMSYWKPEVMIAAQGPLKETIGDFWQMIFQRKVKVIVMLTELKHGDQEICAQYWGEGKQTYGDIEVDLKDTDKSSTYTLRVFELRHSKRKDSRTVYQYQYTNWSVEQLPAEPKELISMIQVVKQKLPQKNSSEGNKHHKSTPLLIHCRDGSQQTGIFCALLNLLESAETEEVVDIFQVVKALRKARPGMVSTFEQYQFLYDVIASTYPAQNGQVKKNNHQEDKIEFDNEVDKVKQDANCVNPLGAPEKLPEAKEQAEGSEPTSGTEGPEHSVNGPASPALNQGS
B3: VHR (protein)
chain: MSGSFELSVQDLNDLLSDGSGCYSLPSQPCNEVTPRIYVGNASVAQDIPKLQKLGITHVLNAAEGRSFMHVNTNANFYKDSGITYLGIKANDTQEFNLSAYFERAADFIDQALAQKNGRVLVHCREGYSRSPTLVIAYLMMRQKMDVKSALSIVRQNREIGPNDGFLAQLCQLNDRLAKEGKLKP
B4: PTP1B (protein)
chain: MEMEKEFEQIDKSGSWAAIYQDIRHEASDFPCRVAKLPKNKNRNRYRDVSPFDHSRIKLHQEDNDYINASLIKMEEAQRSYILTQGPLPNTCGHFWEMVWEQKSRGVVMLNRVMEKGSLKCAQYWPQKEEKEMIFEDTNLKLTLISEDIKSYYTVRQLELENLTTQETREILHFHYTTWPDFGVPESPASFLNFLFKVRESGSLSPEHGPVVVHCSAGIGRSGTFCLADTCLLLMDKRKDPSSVDIKKVLLEMRKFRMGLIQTADQLRFSYLAVIEGAKFIMGDSSVQDQWKELSHEDLEPPPEHIPPPPRPPKRILEPHN
B5: TCPTP (protein)
chain: MPTTIEREFEELDTQRRWQPLYLEIRNESHDYPHRVAKFPENRNRNRYRDVSPYDHSRVKLQNAENDYINASLVDIEEAQRSYILTQGPLPNTCCHFWLMVWQQKTKAVVMLNRIVEKESVKCAQYWPTDDQEMLFKETGFSVKLLSEDVKSYYTVHLLQLENINSGETRTISHFHYTTWPDFGVPESPASFLNFLFKVRESGSLNPDHGPAVIHCSAGIGRSGTFSLVDTCLVLMEKGDDINIKQVLLNMRKYRMGLIQTPDQLRFSYMAIIEGAKCIKGDSSIQKRWKELSKEDLSPAFDHSPNKIMTEKYN
B6: Caspase-3, Human, recombinant protein (protein)
chain: SGISLDNSYKMDYPEMGLCIIINNKNFHKSTGMTSRSGTDVDAANLRETFRNLKYEVRNKNDLTREEIVELMRDVSKEDHSKRSSFVCVLLSHGEEGIIFGTNGPVDLKKITNFFRGDRCRSLTGKPKLFIIQACRGTELDCGIETDSGVDDDMACHKIPVEADFLYAYSTAPGYYSWRNSKDGSWFIQSLCAMLKQYADKLEFMHILTRVNRKVATEFESFSFDATFHAKKQIPCIVSMLTKELYFYH

Target: T1, cFΦR4-PCP

Protein | kcat/KM (dephosphorylation of pCAP peptide)
B1 | 7400 M⁻¹ s⁻¹
B2 | 35100 M⁻¹ s⁻¹
B3 | 2460 M⁻¹ s⁻¹
B4 | 37100 M⁻¹ s⁻¹
B5 | 2780 M⁻¹ s⁻¹

Target: T2, Antp-PCP

Protein | kcat/KM (dephosphorylation of pCAP peptide)
B1 | 2210 M⁻¹ s⁻¹
B2 | 22300 M⁻¹ s⁻¹
B3 | 2030 M⁻¹ s⁻¹
B4 | 17400 M⁻¹ s⁻¹
B5 | 970 M⁻¹ s⁻¹

Target: T3, peptide 7 (Table 10)

Protein | decrease of substrate activity relative to peptide 3
B6 | decreased its activity by 53% and 72%, respectively, relative to peptide 3

Target: T4, R9-PCP

Protein | kcat/KM (dephosphorylation of pCAP peptide)
B1 | 248 M⁻¹ s⁻¹
B2 | 2940 M⁻¹ s⁻¹
B3 | 6240 M⁻¹ s⁻¹
B4 | 14700 M⁻¹ s⁻¹
B5 | 457 M⁻¹ s⁻¹

Target: T5, peptide 6 (Table 10)

Protein | decrease of substrate activity relative to peptide 3
B6 | decreased its activity by 53% and 72%, respectively, relative to peptide 3

— patent publication US20200385427
